Here are results for 13 sequences from the supplement of paper PMC12764529.

Data set [1] can be described thus: folding stability dG unfold from trypsin proteolysis; higher = more stable. The essentials:
(§1)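 Designed mini-proteins with no cysteine and under 80 residues were kept only if AlphaFold2 dimer inter-PAE was above 15. In a PA-tagged cDNA display construct, they were digested with trypsin and chymotrypsin and then sequenced. K50 was inferred by Bayesian fitting of counts, and unfolding free energy was derived per protease or combined against a sequence-predicted unfolded-state K50 and a shared folded-state K50.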

Data set [2] can be described thus: folding stability dG unfold (combined trypsin and chymotrypsin); higher = more stable. The essentials: as §1
Data set [3] can be described thus: folding stability dG unfold from chymotrypsin proteolysis; higher = more stable. The essentials: as §1

± gives the half width of the 95% confidence interval.

Take “SMIVRVEGDKTTITLTLTTTTTLTDPTNPSLTTTVSKTVPRTLTLDPNDPAALAALIAALPPGAVPTIVGSA [r9_476_JUSTAS]”: the “folding stability dG unfold” value in data set [1] is 0.728 ± 0.04 kcal/mol; in data set [2], 1.43 ± 0.095 kcal/mol; in data set [3], 1.75 ± 0.091 kcal/mol.
For “SMKEPPKVTIEIEYDEETETVRVRITLEDGTEIEVEVEAENKEEALREAIREALKKIFPELTDEQIEKLLSA [r9_634_TrROS_Hall]” the same measures were 3.45 ± 0.24 kcal/mol, 2.72 ± 0.29 kcal/mol and 1.58 ± 0.11 kcal/mol.
For “SMKIEIIERNEDGEYVLVRITFEDGEEITIVAKTEEEAKEAAKEIAKELFPDVKIKKIEVVPLEDLPEELSA [r9_137_TrROS_Hall]”, in that order: 1.62 ± 0.14 kcal/mol, 1 ± 0.31 kcal/mol and 0.251 ± 0.37 kcal/mol.
For “SMKIEVEKLEDGTYVITIEDPGEDDIPVTYKAVVFVDPETGKVYVDRNIEDPNVPPELKELFENFIPGIESA [r9_715_TrMRF]” the same measures were 2.5 ± 0.094 kcal/mol, 2.92 ± 0.056 kcal/mol and 3.097 ± 0.018 kcal/mol.
For “SMKIKIEKVEDGYYKIKIYDKKTKKEYTIIVPKNMKPGQVELVNRNGKKITMTLEEIKKLLPPGAEVEIVSA [r9_250_TrROS_Hall]”, the “folding stability dG unfold” value in data set [1] was 2.01 ± 0.074 kcal/mol; in data set [2] it was 2.21 ± 0.1 kcal/mol; in data set [3], 2.14 ± 0.051 kcal/mol.
For “SMKIKIEPLPDGSYRLVAEVPEDAEETENLFPLTGKPIVVKREKNKLVIEFDNPEEVELFAEALKKNIPLSA [r9_515_TrMRF]” the same measures were 1.28 ± 0.032 kcal/mol, 1.47 ± 0.12 kcal/mol and 1.54 ± 0.084 kcal/mol.
“SMKILNDPNIKKVIPVFLMLMSPEEFKKLAEKLANGIKKELEEKGFPIPKDIEIKIIPFKSPEELKKALKSA [r9_204_TrMRF]”: the figures for the “folding stability dG unfold” value in data set [1], in data set [2] and in data set [3] were 1.29 ± 0.039 kcal/mol, 1.93 ± 0.14 kcal/mol and 2.31 ± 0.11 kcal/mol, respectively.
For “SMKINVVINITLPDGTTVTSTLNLTESEIEKTIKEKIPSSYKVEITKKDPVDPAKLPPGSSINVDLTVNLSA [r9_803_JUSTAS]”, the “folding stability dG unfold” value in data set [1] was 1.31 ± 0.079 kcal/mol; in data set [2], 1.59 ± 0.22 kcal/mol; in data set [3] it was 1.69 ± 0.15 kcal/mol.
For “SMKISSFTLAPGGEAVIELTFESGETRRVRLTGLTSKAEVEAEAKRLQEELEKGNPRPIKTVTVSPAPPASA [r9_1135_JUSTAS]”, in that order: 1.14 ± 0.064 kcal/mol, 1 ± 0.094 kcal/mol and 0.768 ± 0.24 kcal/mol.
Take “SMKITIVNKNGEKKEIEVTAKDGKKYKITVFKDKELVIKVEETTPDGKKKPVKVIKAKSLEEALEALKKASA [r9_942_TrROS_Hall]”: the “folding stability dG unfold” value in data set [1] was 2.17 ± 0.14 kcal/mol; in data set [2] it was 2.38 ± 0.32 kcal/mol; in data set [3], 2.83 ± 0.057 kcal/mol.
In the case of “SMKIVKIEIEKIEIYSDEEFAKKTGIKPEAIYKNGKKKKVIKIPVKITLYDEKKGEKKEFEAEITIVIDVSA [r9_382_TrMRF]”, the “folding stability dG unfold” value was found to be 1.56 ± 0.15 kcal/mol in data set [1], 2.2 ± 0.38 kcal/mol in data set [2] and 2.61 ± 0.19 kcal/mol in data set [3].
For “SMKLKLYDPATGKWYELTYDPAKGTVTITYPDGKVITRPVKSIEVNPETGTITITFPDSTETFTVPESLISA [r9_325_JUSTAS]”, in that order: 3.42 ± 0.089 kcal/mol, 3.79 ± 0.066 kcal/mol and 3.934 ± 0.031 kcal/mol.
For “SMKLKPGQTAKIVEIKENYIYIEVNGKKYKISLEELKEKGYEIKIVNGKIVEIRPKPKKKLSEEELKKLKSA [r9_842_TrROS_Hall]” the same measures were 1.13 ± 0.077 kcal/mol, 1.16 ± 0.15 kcal/mol and 1.04 ± 0.16 kcal/mol.
